Three molecules from patent US20230093708A1, “PROTEIN NANOPARTICLE DESIGN AND APPLICATION” (Duke University, priority 2020, published 2023) can be followed below.

The nature of data set [1]: Cryo-TEM micelle core size, inter-core spacing and aspect ratio. To be noted: for Spacing (nm) / Core radius (nm): Table 4, mean ± standard deviation; for Spacing (nm): inter-core spacing. It is filed as physicochemical. The protocol: Using the data from FIG. 18, particularly the longest straight line of an individual particle and a corresponding perpendicular measurement were made to describe the aspect ratio of particles observed.
Cryo-TEM experiments were performed at Duke University's Shared Materials Instrumentation Facility (Durham, N.C.). Lacey holey carbon grids (Ted Pella, Redding, Calif.) were glow discharged in a PELCO EasiGlow Cleaning System (Ted Pella, Redding, Calif.). A 3 μL drop (10 μM RLPn-ELP80) was deposited onto the grid, blotted for 3 s with an offset of −3 mm, and vitrified in liquid ethane using the Vitrobot Mark III (FEI, Eindhoven, Netherlands). Prior to vitrification, the sample chamber was maintained at 15° C. and 100% relative humidity to prevent sample evaporation. Grids were transferred to a Gatan 626 cryoholder (Gatan, Pleasanton, Calif.) and imaged with a FEI Tecnai G2 Twin TEM (FEI, Eindhoven, Netherlands), operating at 80 keV. Feature sizes and spacing distances were measured in ImageJ by manual measurement of at least 25 particles.

The nature of data set [2]: Static and dynamic light scattering (SLS/DLS) of block co-polypeptides. The data set is classed as physicochemical. To be noted: for Nagg / Rg(nm) / Rh (nm) / ρ: Table 3; for Nagg / Rg(nm) / Rh (nm): 10 μM in PBS, 15 °C; for ρ: shape factor Rg/Rh. The protocol:
Key parameters of interest are the hydrophilicity of the corona-forming block, the hydrophilicity of the core block, the overall length of the co-polypeptide and the ratio of the two blocks. Parameters of evaluation are the size, morphology, stability, and thermoresponsive behavior. All measurements were made in 140 mM NaCl, 10 mM phosphate buffer, 3 mM KCl, pH 7.4 unless otherwise specified. Size was evaluated by the hydrodynamic radios (Rh) and radius of gyration (Rg) by dynamic light scattering (DLS) and static light scattering (SLS) respectively. Rg and Rh can be combined to yield the shape factor ρ=Rg/Rh, which provides a rough indication of the morphology of the scatterer. […] For an elongated scatterer, the shape factor depends upon the aspect ratio. A combination of temperature dependent turbidity and DLS was utilized to determine the phase behavior of the block co-polypeptides. Cryogenic transmission electron microscopy (Cryo-TEM) was utilized to evaluate the morphology and provide crucial insight into the hydration of the core/corona chains. Stability of the assembled nanostructure was determined by a shift in the I1/I3 fluorescent bands of pyrene as described previously.
Static and dynamic light scattering measurements (SLS/DLS) were performed using an ALV/CGS-3 goniometer system (Langen, Germany). Samples for the ALV/CGS-3 goniometer system were prepared at a concentration of 10 μM in PBS and filtered through 0.45 μm Millex-GV filters into a 10 mm disposable borosilicate glass tube (Fischer). Simultaneous SLS and DLS measurements were obtained at 15° C. of the ELP for angles between 30°-150° at 5° increments, with each angle consisting of 3 runs for 15 s. SLS experiments were only conducted for self-assembling block co-polypeptides, since the molecular weight of a single block co-polypeptide chain is already known, and the Rg of a single chain is likely near or below the detection limit of the SLS instrument. The differential refractive index (dn/dc) was determined by measuring the refractive index at different concentrations using an Abbemat 500 refractometer (Anton Paar, Graz, Austria). DLS data were analyzed by fitting the autocorrelation function with a cumulant fit, using the built-in ALV software. Hydrodynamic radius (Rh) was plotted against angle and extrapolated to zero. SLS data were analyzed by partial Zimm plots using ALVSTAT software in order to determine the Rg and molecular weight (MW).

B1: RLP40-ELP160: RLP-ELP block co-polypeptide, 40 core and 160 corona repeats (protein)
chain: QYPSDGRGQYPSDGRGQYPSDGRGQYPSDGRGQYPSDGRGQYPSDGRGQYPSDGRGQYPSDGRGQYPSDGRGQYPSDGRGQYPSDGRGQYPSDGRGQYPSDGRGQYPSDGRGQYPSDGRGQYPSDGRGQYPSDGRGQYPSDGRGQYPSDGRGQYPSDGRGQYPSDGRGQYPSDGRGQYPSDGRGQYPSDGRGQYPSDGRGQYPSDGRGQYPSDGRGQYPSDGRGQYPSDGRGQYPSDGRGQYPSDGRGQYPSDGRGQYPSDGRGQYPSDGRGQYPSDGRGQYPSDGRGQYPSDGRGQYPSDGRGQYPSDGRGQYPSDGRGGAGVPGGGVPGAGVPGGGVPGAGVPGGGVPGAGVPGGGVPGAGVPGGGVPGAGVPGGGVPGAGVPGGGVPGAGVPGGGVPGAGVPGGGVPGAGVPGGGVPGAGVPGGGVPGAGVPGGGVPGAGVPGGGVPGAGVPGGGVPGAGVPGGGVPGAGVPGGGVPGAGVPGGGVPGAGVPGGGVPGAGVPGGGVPGAGVPGGGVPGAGVPGGGVPGAGVPGGGVPGAGVPGGGVPGAGVPGGGVPGAGVPGGGVPGAGVPGGGVPGAGVPGGGVPGAGVPGGGVPGAGVPGGGVPGAGVPGGGVPGAGVPGGGVPGAGVPGGGVPGAGVPGGGVPGAGVPGGGVPGAGVPGGGVPGAGVPGGGVPGAGVPGGGVPGAGVPGGGVPGAGVPGGGVPGAGVPGGGVPGAGVPGGGVPGAGVPGGGVPGAGVPGGGVPGAGVPGGGVPGAGVPGGGVPGAGVPGGGVPGAGVPGGGVPGAGVPGGGVPGAGVPGGGVPGAGVPGGGVPGAGVPGGGVPGAGVPGGGVPGAGVPGGGVPGAGVPGGGVPGAGVPGGGVPGAGVPGGGVPGAGVPGGGVPGAGVPGGGVPGAGVPGGGVPGAGVPGGGVPGAGVPGGGVPGAGVPGGGVPGAGVPGGGVPGAGVPGGGVPGAGVPGGGVPGAGVPGGGVPGAGVPGGGVPGAGVPGGGVPGAGVPGGGVPGAGVPGGGVPGAGVPGGGVPGAGVPGGGVPGAGVPGGGVPGAGVPGGGVPGAGVPGGGVPGAGVPGGGVPGAGVPGGGVPGAGVPGGGVPGAGVPGGGVPGAGVPGGGVP
As to B1, in data set [1], the “core radius (cryo-TEM)” value was found to be 11.0 nm, the “spacing between particle cores (cryo-TEM)” value was 22.3 nm, the “Spacing (nm)” value came to 22.3 ± 5.2 nm and the “Core radius (nm)” value came out at 11.0 ± 1.6 nm. Moreover, in data set [2], the “hydrodynamic radius (Rh)” value is given as 92.3 nm, the “radius of gyration (Rg)” value worked out at 70.8 nm, the “shape factor / form factor (Rg/Rh)” value is recorded as 0.8 and the Nagg came to 246. Further, in data set [2], the “Rg(nm)” value stood at 70.8 nm, the “Rh (nm)” value is reported as 92.3 nm and the ρ came to 0.8.

B2: RLP80-ELP160: RLP-ELP block co-polypeptide, 80 core and 160 corona repeats (protein)
chain: QYPSDGRGQYPSDGRGQYPSDGRGQYPSDGRGQYPSDGRGQYPSDGRGQYPSDGRGQYPSDGRGQYPSDGRGQYPSDGRGQYPSDGRGQYPSDGRGQYPSDGRGQYPSDGRGQYPSDGRGQYPSDGRGQYPSDGRGQYPSDGRGQYPSDGRGQYPSDGRGQYPSDGRGQYPSDGRGQYPSDGRGQYPSDGRGQYPSDGRGQYPSDGRGQYPSDGRGQYPSDGRGQYPSDGRGQYPSDGRGQYPSDGRGQYPSDGRGQYPSDGRGQYPSDGRGQYPSDGRGQYPSDGRGQYPSDGRGQYPSDGRGQYPSDGRGQYPSDGRGQYPSDGRGQYPSDGRGQYPSDGRGQYPSDGRGQYPSDGRGQYPSDGRGQYPSDGRGQYPSDGRGQYPSDGRGQYPSDGRGQYPSDGRGQYPSDGRGQYPSDGRGQYPSDGRGQYPSDGRGQYPSDGRGQYPSDGRGQYPSDGRGQYPSDGRGQYPSDGRGQYPSDGRGQYPSDGRGQYPSDGRGQYPSDGRGQYPSDGRGQYPSDGRGQYPSDGRGQYPSDGRGQYPSDGRGQYPSDGRGQYPSDGRGQYPSDGRGQYPSDGRGQYPSDGRGQYPSDGRGQYPSDGRGQYPSDGRGQYPSDGRGQYPSDGRGQYPSDGRGGAGVPGGGVPGAGVPGGGVPGAGVPGGGVPGAGVPGGGVPGAGVPGGGVPGAGVPGGGVPGAGVPGGGVPGAGVPGGGVPGAGVPGGGVPGAGVPGGGVPGAGVPGGGVPGAGVPGGGVPGAGVPGGGVPGAGVPGGGVPGAGVPGGGVPGAGVPGGGVPGAGVPGGGVPGAGVPGGGVPGAGVPGGGVPGAGVPGGGVPGAGVPGGGVPGAGVPGGGVPGAGVPGGGVPGAGVPGGGVPGAGVPGGGVPGAGVPGGGVPGAGVPGGGVPGAGVPGGGVPGAGVPGGGVPGAGVPGGGVPGAGVPGGGVPGAGVPGGGVPGAGVPGGGVPGAGVPGGGVPGAGVPGGGVPGAGVPGGGVPGAGVPGGGVPGAGVPGGGVPGAGVPGGGVPGAGVPGGGVPGAGVPGGGVPGAGVPGGGVPGAGVPGGGVPGAGVPGGGVPGAGVPGGGVPGAGVPGGGVPGAGVPGGGVPGAGVPGGGVPGAGVPGGGVPGAGVPGGGVPGAGVPGGGVPGAGVPGGGVPGAGVPGGGVPGAGVPGGGVPGAGVPGGGVPGAGVPGGGVPGAGVPGGGVPGAGVPGGGVPGAGVPGGGVPGAGVPGGGVPGAGVPGGGVPGAGVPGGGVPGAGVPGGGVPGAGVPGGGVPGAGVPGGGVPGAGVPGGGVPGAGVPGGGVPGAGVPGGGVPGAGVPGGGVPGAGVPGGGVPGAGVPGGGVPGAGVPGGGVPGAGVPGGGVPGAGVPGGGVPGAGVPGGGVPGAGVPGGGVPGAGVPGGGVPGAGVPGGGVPGAGVPGGGVPGAGVPGGGVP
Consider B2, for which, in data set [1], the “Spacing (nm)” value is listed as 59.0 ± 13.2 nm and the “Core radius (nm)” value is 29.3 ± 4.5 nm. Besides, in data set [2], the “hydrodynamic radius (Rh)” value is recorded as 93.3 nm, the “radius of gyration (Rg)” value worked out at 78.2 nm, the “shape factor / form factor (Rg/Rh)” value worked out at 0.8 and the Nagg was 1728. Further, in data set [2], the “Rg(nm)” value is given as 78.2 nm, the “Rh (nm)” value is on record as 93.5 nm and the ρ was 0.84.

B3: RLP40-ELP40: RLP-ELP block co-polypeptide, 40 core and 40 corona repeats (protein)
chain: QYPSDGRGQYPSDGRGQYPSDGRGQYPSDGRGQYPSDGRGQYPSDGRGQYPSDGRGQYPSDGRGQYPSDGRGQYPSDGRGQYPSDGRGQYPSDGRGQYPSDGRGQYPSDGRGQYPSDGRGQYPSDGRGQYPSDGRGQYPSDGRGQYPSDGRGQYPSDGRGQYPSDGRGQYPSDGRGQYPSDGRGQYPSDGRGQYPSDGRGQYPSDGRGQYPSDGRGQYPSDGRGQYPSDGRGQYPSDGRGQYPSDGRGQYPSDGRGQYPSDGRGQYPSDGRGQYPSDGRGQYPSDGRGQYPSDGRGQYPSDGRGQYPSDGRGQYPSDGRGGAGVPGGGVPGAGVPGGGVPGAGVPGGGVPGAGVPGGGVPGAGVPGGGVPGAGVPGGGVPGAGVPGGGVPGAGVPGGGVPGAGVPGGGVPGAGVPGGGVPGAGVPGGGVPGAGVPGGGVPGAGVPGGGVPGAGVPGGGVPGAGVPGGGVPGAGVPGGGVPGAGVPGGGVPGAGVPGGGVPGAGVPGGGVPGAGVPGGGVP
Turning to B3, in data set [1], the “core radius (cryo-TEM)” value worked out at 11.8 nm, the “spacing between particle cores (cryo-TEM)” value is recorded as 19.5 nm, the “Spacing (nm)” value came out at 19.5 ± 4.3 nm and the “Core radius (nm)” value stood at 11.8 ± 1.6 nm. Besides, in data set [2], the “hydrodynamic radius (Rh)” value is on record as 52.6 nm, the “radius of gyration (Rg)” value is on record as 56.2 nm, the “shape factor / form factor (Rg/Rh)” value is reported as “greater than 1” and the Nagg is listed as 91. Further, in data set [2], the “Rg(nm)” value came to 56.2 nm, the “Rh (nm)” value is recorded as 52.6 nm and the ρ came out at 1.13.
